# From patent publication US20240010697A1 (CYTIMM THERAPEUTICS, published 2024)
# Numbering of substitutions follows the chain as printed. Numbers in names are those of the source.
# T1: IL-2Rα in a human Fc fusion protein format (ACROBiosystems) (human, UniProt P01589 22-213, limits assumed)
# T1 construct: Bought reagent; also called CD25; not shown: human Fc (captured by anti-human IgG Fc)
# T1 sequence (looked up): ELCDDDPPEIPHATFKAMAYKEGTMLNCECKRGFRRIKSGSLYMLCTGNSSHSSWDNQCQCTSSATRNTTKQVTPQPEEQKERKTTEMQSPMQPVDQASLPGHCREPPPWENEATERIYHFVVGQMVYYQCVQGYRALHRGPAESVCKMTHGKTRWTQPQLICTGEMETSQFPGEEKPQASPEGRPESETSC
# T2: IL-2Rβγ-human Fc fusion protein construct (ACRO Biosystems) (human, UniProt P14784 27-239; P31785 23-262, limits assumed)
# T2 construct: not shown: human Fc
# T2 sequence (looked up) 1: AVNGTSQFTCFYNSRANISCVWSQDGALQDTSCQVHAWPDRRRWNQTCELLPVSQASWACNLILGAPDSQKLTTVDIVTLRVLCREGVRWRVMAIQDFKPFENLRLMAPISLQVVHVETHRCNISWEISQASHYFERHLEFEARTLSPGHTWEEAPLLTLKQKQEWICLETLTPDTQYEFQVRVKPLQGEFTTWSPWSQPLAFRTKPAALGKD
# T2 sequence (looked up) 2: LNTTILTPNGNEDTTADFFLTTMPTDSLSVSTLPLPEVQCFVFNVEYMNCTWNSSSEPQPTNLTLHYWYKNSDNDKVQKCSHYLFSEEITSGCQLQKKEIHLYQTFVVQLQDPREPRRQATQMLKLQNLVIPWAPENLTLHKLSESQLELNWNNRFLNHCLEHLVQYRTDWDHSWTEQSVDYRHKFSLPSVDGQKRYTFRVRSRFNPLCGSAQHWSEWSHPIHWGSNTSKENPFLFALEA
# T3: IL2R β
# T3 construct: also called IL-2Rβ in a human Fc fusion protein format (ACROBiosystems); CD122; not shown: The human IgG Fc carrier and any linker of the ACROBiosystems fusion
# T3 chain: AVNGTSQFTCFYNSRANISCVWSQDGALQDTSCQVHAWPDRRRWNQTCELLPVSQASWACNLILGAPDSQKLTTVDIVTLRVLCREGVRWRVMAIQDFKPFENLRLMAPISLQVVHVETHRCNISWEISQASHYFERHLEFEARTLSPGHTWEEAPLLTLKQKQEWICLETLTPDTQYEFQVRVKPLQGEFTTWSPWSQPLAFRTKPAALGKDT
# B1: ACT5210, IL-2 mutein Y31C + L18M + L19S (ligand)
# chain: APTSSSTKKTQLQLEHLMSDLQMILNGINNCKNPKLTRMLTFKFYMPKKATELKHLQCLEEELKPLEEVLNLAQSKNFHLRPRDLISNINVIVLELKGSETTFMCEYADETATIVEFLNRWITFSQSIISTLT
# notes: Not PEGylated; rhIL-2 (C125S) background; also called His-conjugated IL-2 mutein (ACT5210); not shown: His-Tag
# B2: IL-2 mutein Y31C - PEG20 + N30G (ligand)
# chain: B1 chain with M18L, S19L, N30G
# modifications: maleimide-PEG 20K on Cys 31
# notes: not shown: His-Tag
# B3: ACT5291, IL-2 mutein Y31C + V69A + Q74P + V91K (PEG20K) (ligand)
# chain: B1 chain with M18L, S19L, V69A, Q74P, V91K
# modifications: maleimide-PEG 20K on Cys 31
# notes: rhIL-2 (C125S) background; also called Y31C - PEG20 + V69A + Q74P + V91K; not shown: His-Tag
# B4: ACT5281, IL-2 mutein Y31C + V69A + Q74P + N88R (PEG20K) (ligand)
# chain: B1 chain with M18L, S19L, V69A, Q74P, N88R
# modifications: maleimide-PEG 20K on Cys 31
# notes: rhIL-2 (C125S) background; also called Y31C - PEG20 + V69A + Q74P + N88R; not shown: His-Tag
# B5: ACT5271, IL-2 mutein Y31C + V69A + Q74P + N30S (PEG20K) (ligand)
# chain: B1 chain with M18L, S19L, N30S, V69A, Q74P
# modifications: maleimide-PEG 20K on Cys 31
# notes: rhIL-2 (C125S) background; also called Y31C - PEG20 + V69A + Q74P + N30S; not shown: His-Tag
# B6: ACT5261, IL-2 mutein Y31C + L18M + L19S + V69A + Q74P (PEG20K) (ligand)
# chain: B1 chain with V69A, Q74P
# modifications: maleimide-PEG 20K on Cys 31
# notes: rhIL-2 (C125S) background; also called Y31C - PEG20 + L18M + L19S + V69A + Q74P; not shown: His-Tag
# B7: IL-2 mutein Y31C - PEG20 + N30A (ligand)
# chain: B1 chain with M18L, S19L, N30A
# modifications: maleimide-PEG 20K on Cys 31
# notes: not shown: His-Tag
# B8: ACT5231, IL-2 mutein Y31C + V69A + Q74P (PEG20K) (ligand)
# chain: B1 chain with M18L, S19L, V69A, Q74P
# modifications: maleimide-PEG 20K on Cys 31
# notes: rhIL-2 (C125S) background; also called Y31C - PEG20 + V69A + Q74P; not shown: His-Tag
# B9: ACT5211, IL-2 mutein Y31C + L18M + L19S (PEG20K) (ligand)
# chain: B1 chain
# modifications: maleimide-PEG 20K on Cys 31
# notes: rhIL-2 (C125S) background; also called Y31C - PEG20 + L18M + L19S; Y31C-PEG20+L18ML19S; not shown: His-Tag
# B10: IL-2 mutein Y31C - PEG20 + V69A + Q74P + I128T (ligand)
# chain: B1 chain with M18L, S19L, V69A, Q74P, I128T
# modifications: maleimide-PEG 20K on Cys 31
# notes: not shown: His-Tag
# B11: ACT522S1, IL-2 mutein Y31C + N30S (PEG20K) (ligand)
# chain: B1 chain with M18L, S19L, N30S
# modifications: maleimide-PEG 20K on Cys 31
# notes: rhIL-2 (C125S) background; also called Y31C - PEG20 + N30S; not shown: His-Tag
# Experiments:
# [1] = target: T1, IL-2Rα in a human Fc fusion protein …; assay: ELISA; EC50 on IL-2Rα over EC50 on IL-2Rβγ (reference)
# Method: (§1) IL-2Rα and IL-2R βγ-human Fc fusion protein constructs (ACRO Biosystems) were each expressed and immobilized by anti-Human IgG Fc (abeam), which were then captured on the surface of wells of a microplate. […] Binding was detected using anti-His or anti-PEG antibody conjugated to horse radish peroxidase (HRP) (Genscript), which was incubated with substrate. The quantification of binding was measured with an absorbance-based microplate reader. Data were analyzed by Graphpas prism9 Software.
# [2] = target: T1, IL-2Rα in a human Fc fusion protein …; assay: ELISA, receptor-Fc captured by anti-human IgG Fc, anti-His-HRP detection
# Method: as §1
# [3] = target: T2, IL-2Rβγ-human Fc fusion protein …; assay: as above
# Method: as §1
# [4] = target: T1, IL-2Rα in a human Fc fusion protein …; assay: biosensor kinetics, receptor as ligand on the sensor, IL-2 protein as sample, 1:1 Binding model (legend: Octet QKe; table heads give RU)
# [5] = target: T2, IL-2Rβγ-human Fc fusion protein …; assay: as above
# IL2R αβγ = target: T4, IL2R αβγ; assay: as above
# T4 construct: Cell-free IL-2Rαβγ on a biosensor; not the cell-borne receptors m18 and m19; also called IL-2Rαβγ (ligand on the sensor)
# [6] = target: T1, IL-2Rα in a human Fc fusion protein …; assay: BLI (Octet QKe), IL-2Rα-Fc captured on AHC sensors, 1:1 fit; row printed a second time
# Excerpt: (§2) IL-2Rα or IL-2Rβ in a human Fc fusion protein format (ACROBiosystems) were captured on anti-human IgG Fc capture (AHC) sensors. […] Dissociation was detected following transfer of sensors into wells containing buffer alone. Data were collected and analyzed by the Octet User Software. For analysis of the kinetics constants, a 1:1 curve fitting model was used.
# [7] = target: T1, IL-2Rα in a human Fc fusion protein …; assay: BLI (Octet QKe), IL-2Rα-Fc captured on AHC sensors, 1:1 fit
# Excerpt: as §2
# [8] = target: T2, IL-2Rβγ-human Fc fusion protein …; assay: ELISA; EC50 of rhIL2 (reference) over EC50 of ACT5211 on IL-2Rβγ
# Method: as §1
# [9] = target: T1, IL-2Rα in a human Fc fusion protein …; assay: ELISA, receptor-Fc captured by anti-human IgG Fc on the plate, detection with anti-His or anti-PEG antibody-HRP; unit from the axis (Table 4 of the text prints 5.1)
# Method: as §1
# [10] = target: T1, IL-2Rα in a human Fc fusion protein …; assay: ELISA; EC50 of rhIL2 (reference) over EC50 of ACT5211 on IL-2Rα
# Method: as §1
# [11] = target: T2, IL-2Rβγ-human Fc fusion protein …; assay: ELISA, receptor-Fc captured by anti-human IgG Fc on the plate, detection with anti-His or anti-PEG antibody-HRP; unit from the axis (Table 4 of the text prints 21.7)
# Method: as §1
# [12] = target: T1, IL-2Rα in a human Fc fusion protein …; assay: ELISA, receptor-Fc captured by anti-human IgG Fc, anti-His or anti-PEG HRP detection
# Method: as §1
# [13] = target: T2, IL-2Rβγ-human Fc fusion protein …; assay: as above
# Method: as §1
# IL2R β = target: T3, IL2R β; assay: biosensor sensorgrams, receptor on the sensor, IL-2 protein in solution (legend: Octet QKe); axes without units, concentrations not given
# Excerpt: as §2
# [14] = target: T1, IL-2Rα in a human Fc fusion protein …; assay: ELISA; α/βγ EC50 ratio of rhIL2 (reference) over that of ACT5211
# Method: as §1
binder,measurement,setting,value
B1,Ratio (α/βγ) of EC50,[1],0.06
same,EC50,[2],2.5 ng/mL
same,EC50,[3],39.6 ng/mL
same,Kd,[4],28.4 nM
same,koff,[4],0.164 s⁻¹
same,kon,[4],5.75e+06 M⁻¹ s⁻¹
same,Kd,[5],1.04 nM
same,koff,[5],0.000837 s⁻¹
same,kon,[5],807000 M⁻¹ s⁻¹
same,Kd,IL2R αβγ,0.0113 nM
same,koff,IL2R αβγ,0.000281 s⁻¹
same,kon,IL2R αβγ,2.48e+07 M⁻¹ s⁻¹
B2,Kd,[6],61 nM
same,koff,[6],0.0232 s⁻¹
same,kon,[6],379000 M⁻¹ s⁻¹
same,Kd,[7],61 nM
same,koff,[7],0.0232 s⁻¹
same,kon,[7],379000 M⁻¹ s⁻¹
B3,Kd,[7],9.07 nM
same,koff,[7],0.0032 s⁻¹
same,kon,[7],355000 M⁻¹ s⁻¹
B4,Kd,[7],10.6 nM
same,koff,[7],0.0037 s⁻¹
same,kon,[7],345000 M⁻¹ s⁻¹
B5,Kd,[7],9.14 nM
same,koff,[7],0.0029 s⁻¹
same,kon,[7],318000 M⁻¹ s⁻¹
B6,Kd,[7],7.38 nM
same,koff,[7],0.0043 s⁻¹
same,kon,[7],581000 M⁻¹ s⁻¹
B7,Kd,[7],37.3 nM
same,koff,[7],0.0194 s⁻¹
same,kon,[7],520000 M⁻¹ s⁻¹
B8,Kd,[7],9.09 nM
same,koff,[7],0.00431 s⁻¹
same,kon,[7],474000 M⁻¹ s⁻¹
B9,Ratio (α/βγ) of EC50,[1],0.3
same,EC50 ratio rhIL2/ACT5211,[8],0.1
same,EC50,[9],5.01 ng/mL
same,EC50 ratio rhIL2/ACT5211,[10],6.8
same,EC50,[11],2.03 ng/mL
same,EC50,[12],5.1 ng/mL
same,EC50,[13],21.7 ng/mL
same,Kd,[4],250 nM
same,koff,[4],0.139 s⁻¹
same,kon,[4],555000 M⁻¹ s⁻¹
same,Kd,[5],15.1 nM
same,koff,[5],0.00147 s⁻¹
same,kon,[5],97200 M⁻¹ s⁻¹
same,Kd,IL2R αβγ,0.289 nM
same,koff,IL2R αβγ,0.000761 s⁻¹
same,kon,IL2R αβγ,2.63e+06 M⁻¹ s⁻¹
same,binding result,IL2R β,no binding (tested: not printed)
same,Kd,[7],91.5 nM
same,koff,[7],0.0388 s⁻¹
same,kon,[7],424000 M⁻¹ s⁻¹
same,"ratio of the (α/βγ) EC50 ratios, rhIL2/ACT5211",[14],67.7
B10,Kd,[7],8.86 nM
same,koff,[7],0.0035 s⁻¹
same,kon,[7],393000 M⁻¹ s⁻¹
B11,Kd,[7],47.3 nM
same,koff,[7],0.0302 s⁻¹
same,kon,[7],639000 M⁻¹ s⁻¹
